Tests used:
NF90long;NF45 [1] = biological target: T1, NF90long;NF45 (Mus musculus;Homo sapiens, UniProt Q9Z1X4;Q12905 1-591;1-390, |); assay: quantitative EDC CLMS; 18-bp complex formation: 30 min on ice, SEC in 20 mM HEPES pH 7.5, 150 mM NaCl, 1 mM DTT; mass photometry at 10-50 nM protein; SAXS and EM buffers not in the material; details: protein: recombinant;recombinant; tags: C-terminal 6xHis (non-cleavable);N-terminal GST, removed with 3C protease; copies: 1;1; blunt
NF90long;NF45 [2] = biological target: T1, NF90long;NF45; assay: SEC-SAXS; mass photometry; protein:RNA 2:1 and 4:1; RNA saturated at 4:1; 18-bp complex formation: 30 min on ice, SEC in 20 mM HEPES pH 7.5, 150 mM NaCl, 1 mM DTT; mass photometry at 10-50 nM protein; SAXS and EM buffers not in the material; details: protein: recombinant;recombinant; tags: C-terminal 6xHis (non-cleavable);N-terminal GST, removed with 3C protease; copies: 1;1; S13 is labelled 3'-5' but pairs only if read 5'-3' (18 bp, 7-nt 3' tails)
NF90long;NF45 [3] = biological target: T1, NF90long;NF45; assay: SEC and EDC cross-linking (SDS-PAGE, CLMS); protein:RNA 1:1 and 2:1; 18-bp complex formation: 30 min on ice, SEC in 20 mM HEPES pH 7.5, 150 mM NaCl, 1 mM DTT; mass photometry at 10-50 nM protein; SAXS and EM buffers not in the material; details: protein: recombinant;recombinant; tags: C-terminal 6xHis (non-cleavable);N-terminal GST, removed with 3C protease; copies: 1;1; blunt
NF90long;NF45 [4] = biological target: T1, NF90long;NF45; assay: SEC-SAXS; mass photometry; not more than 4 heterodimers per RNA (SAXS); up to 3 by mass photometry; 18-bp complex formation: 30 min on ice, SEC in 20 mM HEPES pH 7.5, 150 mM NaCl, 1 mM DTT; mass photometry at 10-50 nM protein; SAXS and EM buffers not in the material; details: protein: recombinant;recombinant; tags: C-terminal 6xHis (non-cleavable);N-terminal GST, removed with 3C protease; copies: 1;1; blunt

B1: 25-bp GC-rich dsRNA (CLMS) (dsRNA)
RNA 1: GCCGCGGAGGCCCCGCCGUGGGCCC
RNA 2: GGGCCCACGGCGGGGCCUCCGCGGC
- binding result (NF90long;NF45 [1]): binds

B2: 25-bp dsRNA (SAXS) (dsRNA)
RNA 1: UCACUUUCAUAAUGCUGGUCACUUU
RNA 2: CCAGCAUUAUGAAAGUGACCAGCAU
- binding result (NF90long;NF45 [2]): binds

B3: 18-bp 2'-fluoro dsRNA (EDC) (XNA)
RNA 1: UCACUUUCAUAAUGCUGG
RNA 2: CCAGCAUUAUGAAAGUGA
modifications: uniform 2'-fluoro (printed beside the top strand; Methods call the duplex 2'-fluorinated)
- binding result (NF90long;NF45 [3]): binds

B4: 54-bp dsRNA (SAXS) (dsRNA)
RNA 1: UCACUUUCAUAAUGCUGGUCACUUUCAUAAUGCUGGUCACUUUCAUAAUGCUGG
RNA 2: CCAGCAUUAUGAAAGUGACCAGCAUUAUGAAAGUGACCAGCAUUAUGAAAGUGA
- binding result (NF90long;NF45 [4]): binds

— paper PMC11952958, “Integrative structural analysis of NF45–NF90 heterodimers reveals architectural rearrangements and oligomerization on binding dsRNA”
